Patent US20140087995A1 (published 2014)
Numbered stars: 1 amine (or outer) side, 2 acyl side, 3 side chain; on linkers, the order of the positions; unused ones are H or OH. Bridge positions count the residues as written; N and C are the ends. Side chains are listed from the residue outwards. Ends that are not written are not given here. * marks the point of attachment. C20 diacid = O=C(O)CCCCCCCCCCCCCCCCCCC(=O)*; C18 diacid = O=C(O)CCCCCCCCCCCCCCCCC(=O)*; γGlu = O=C(O)[C@H](CCC(=O)[*:2])N[*:1]

T1: rat calcitonin receptor (rat, UniProt P32214 25-516)
T1 construct: whole, on cells; Membranes of transiently transfected BHK tk'ts 13 cells; also called rCTR; rat calcitonin (a) receptor
T1 sequence (looked up): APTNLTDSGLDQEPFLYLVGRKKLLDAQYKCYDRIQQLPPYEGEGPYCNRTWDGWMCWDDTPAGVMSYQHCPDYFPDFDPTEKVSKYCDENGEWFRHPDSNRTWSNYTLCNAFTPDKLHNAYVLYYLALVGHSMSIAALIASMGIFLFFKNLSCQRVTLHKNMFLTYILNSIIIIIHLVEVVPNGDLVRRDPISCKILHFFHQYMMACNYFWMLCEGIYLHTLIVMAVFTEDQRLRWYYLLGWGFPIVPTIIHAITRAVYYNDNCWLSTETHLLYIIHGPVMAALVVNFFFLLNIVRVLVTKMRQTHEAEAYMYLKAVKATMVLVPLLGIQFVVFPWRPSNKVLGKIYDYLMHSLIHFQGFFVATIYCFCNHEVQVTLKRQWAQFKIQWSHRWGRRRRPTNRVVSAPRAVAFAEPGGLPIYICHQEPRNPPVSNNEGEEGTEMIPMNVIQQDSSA

T2: human calcitonin receptor (human, UniProt P30988 25-474)
T2 construct: whole, on cells; Membranes of stably transfected cells; also called hCTR; hCT
T2 sequence (looked up): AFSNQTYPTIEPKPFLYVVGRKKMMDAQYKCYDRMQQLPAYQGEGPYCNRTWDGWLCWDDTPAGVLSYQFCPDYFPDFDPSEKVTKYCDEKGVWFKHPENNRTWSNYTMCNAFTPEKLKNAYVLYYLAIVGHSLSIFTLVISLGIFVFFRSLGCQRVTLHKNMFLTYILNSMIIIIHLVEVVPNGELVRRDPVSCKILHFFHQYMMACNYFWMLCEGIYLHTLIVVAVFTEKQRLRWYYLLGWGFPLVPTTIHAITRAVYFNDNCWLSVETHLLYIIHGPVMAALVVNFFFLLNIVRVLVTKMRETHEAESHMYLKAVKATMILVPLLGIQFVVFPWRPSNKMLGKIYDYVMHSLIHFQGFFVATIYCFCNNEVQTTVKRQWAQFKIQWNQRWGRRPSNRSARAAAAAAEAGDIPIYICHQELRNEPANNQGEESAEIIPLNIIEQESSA

T3: rat amylin receptor (rat calcitonin receptor + rat RAMP 3) (rat, UniProt P32214 25-516; Q9JJ73 23-147)
T3 construct: whole, on cells; Membranes of transiently transfected BHK tk'ts 13 cells; also called rAmylin-R; rat amylin 3(a) receptor
T3 sequence (looked up) 1: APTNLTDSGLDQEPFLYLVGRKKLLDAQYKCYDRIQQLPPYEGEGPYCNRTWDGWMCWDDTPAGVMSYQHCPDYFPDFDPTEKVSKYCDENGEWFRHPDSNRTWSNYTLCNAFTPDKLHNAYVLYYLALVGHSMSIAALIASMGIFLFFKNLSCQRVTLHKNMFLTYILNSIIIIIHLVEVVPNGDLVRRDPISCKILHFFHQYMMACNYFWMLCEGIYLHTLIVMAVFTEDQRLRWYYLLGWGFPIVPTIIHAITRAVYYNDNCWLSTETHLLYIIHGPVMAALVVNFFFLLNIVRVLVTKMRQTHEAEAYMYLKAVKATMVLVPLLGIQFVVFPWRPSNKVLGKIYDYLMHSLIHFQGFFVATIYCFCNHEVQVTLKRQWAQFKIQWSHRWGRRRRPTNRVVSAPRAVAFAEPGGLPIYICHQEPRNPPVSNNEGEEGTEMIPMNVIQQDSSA
T3 sequence (looked up) 2: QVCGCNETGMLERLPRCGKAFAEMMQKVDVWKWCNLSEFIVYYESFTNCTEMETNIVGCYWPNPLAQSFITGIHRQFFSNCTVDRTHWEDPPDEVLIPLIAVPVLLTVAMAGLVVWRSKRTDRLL


Columns and labels:
rat calcitonin receptor [1] = biological target: T1, rat calcitonin receptor; assay: ratio of IC50 on rat calcitonin receptor to IC50 on rat amylin receptor (reference m40)
[2] = biological target: T2, human calcitonin receptor; assay: ratio of IC50 on human calcitonin receptor to IC50 on human amylin receptor (reference m42), SPA competition
Summary of the method: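 Scintillation proximity competition binding on cell membranes at 35 ng/μL with SPA beads, in 50 mM Hepes pH 7.4, 1 mM CaCl2, 5 mM MgCl₂, 0.1% OA, 0.02% Tween20. Incubated 120 min at 25° C with shaking. IC₅₀ from one-site competition fit.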

[3] = biological target: T3, rat amylin receptor (rat calcitonin …); assay: SPA competition with 125I-rat amylin on membranes of BHK tk'ts 13 cells with rat calcitonin receptor + rat RAMP3 (Assay VI)
rat calcitonin receptor [4] = biological target: T1, rat calcitonin receptor; assay: SPA competition with 125I-calcitonin on membranes of BHK tk'ts 13 cells with rat calcitonin receptor (Assay VIII)

Binder | Ratio rCT/rAmylin binding (rat calcitonin receptor [1]) | Ratio hCT/hAmylin binding [2] | IC50 [3] | IC50 (rat calcitonin receptor [4])
K([γGlu-C18 diacid])CNTATCATQRLANFLRHSSPNFGAIPSSTNVGHNTY-NH2 (disulfide 2-7; N-terminus assumed; SMILES CC[C@H](C)[C@H](NC(=O)[C@H](C)NC(=O)CNC(=O)[C@H](Cc1ccccc1)NC(=O)[C@H](CC(N)=O)NC(=O)[C@@H]1CCCN1C(=O)[C@H](CO)NC(=O)[C@H](CO)NC(=O)[C@H](Cc1c[nH]cn1)NC(=O)[C@H](CCCNC(=N)N)NC(=O)[C@H](CC(C)C)NC(=O)[C@H](Cc1ccccc1)NC(=O)[C@H](CC(N)=O)NC(=O)[C@H](C)NC(=O)[C@H](CC(C)C)NC(=O)[C@H](CCCNC(=N)N)NC(=O)[C@H](CCC(N)=O)NC(=O)[C@@H](NC(=O)[C@H](C)NC(=O)[C@@H]1CSSC[C@H](NC(=O)[C@@H](N)CCCCNC(=O)CC[C@H](NC(=O)CCCCCCCCCCCCCCCCC(=O)O)C(=O)O)C(=O)N[C@@H](CC(N)=O)C(=O)N[C@@H]([C@@H](C)O)C(=O)N[C@@H](C)C(=O)N[C@@H]([C@@H](C)O)C(=O)N1)[C@@H](C)O)C(=O)N1CCC[C@H]1C(=O)N[C@@H](CO)C(=O)N[C@@H](CO)C(=O)N[C@H](C(=O)N[C@@H](CC(N)=O)C(=O)N[C@H](C(=O)NCC(=O)N[C@@H](Cc1c[nH]cn1)C(=O)N[C@@H](CC(N)=O)C(=O)N[C@H](C(=O)N[C@@H](Cc1ccc(O)cc1)C(N)=O)[C@@H](C)O)C(C)C)[C@@H](C)O, Synthetic acylated analogue of human amylin) [N^ε1-[(4S)-4-carboxy-4-(17-carboxyheptadecanoylamino)butanoyl]-[Arg17,Pro21,Pro27,His34]-h-amylin] | 40.3 | 59.4 | 1.17 nM | 47 nM
K([γGlu-C20 diacid])CNTATCATQRLAAFLRHSSPNFGAIPSSTNVGPNTY-NH2 (disulfide 2-7; N-terminus assumed; SMILES CC[C@H](C)[C@H](NC(=O)[C@H](C)NC(=O)CNC(=O)[C@H](Cc1ccccc1)NC(=O)[C@H](CC(N)=O)NC(=O)[C@@H]1CCCN1C(=O)[C@H](CO)NC(=O)[C@H](CO)NC(=O)[C@H](Cc1c[nH]cn1)NC(=O)[C@H](CCCNC(=N)N)NC(=O)[C@H](CC(C)C)NC(=O)[C@H](Cc1ccccc1)NC(=O)[C@H](C)NC(=O)[C@H](C)NC(=O)[C@H](CC(C)C)NC(=O)[C@H](CCCNC(=N)N)NC(=O)[C@H](CCC(N)=O)NC(=O)[C@@H](NC(=O)[C@H](C)NC(=O)[C@@H]1CSSC[C@H](NC(=O)[C@@H](N)CCCCNC(=O)CC[C@H](NC(=O)CCCCCCCCCCCCCCCCCCC(=O)O)C(=O)O)C(=O)N[C@@H](CC(N)=O)C(=O)N[C@@H]([C@@H](C)O)C(=O)N[C@@H](C)C(=O)N[C@@H]([C@@H](C)O)C(=O)N1)[C@@H](C)O)C(=O)N1CCC[C@H]1C(=O)N[C@@H](CO)C(=O)N[C@@H](CO)C(=O)N[C@H](C(=O)N[C@@H](CC(N)=O)C(=O)N[C@H](C(=O)NCC(=O)N1CCC[C@H]1C(=O)N[C@@H](CC(N)=O)C(=O)N[C@H](C(=O)N[C@@H](Cc1ccc(O)cc1)C(N)=O)[C@@H](C)O)C(C)C)[C@@H](C)O, Synthetic acylated analogue of human amylin; also called compound 94) | 280 | 46.3 | 0.397 nM | 111 nM
K([γGlu-C20 diacid])CNTATCATQRLADFLRHSSPNFGAIPSSTNVGPRTY-NH2 (disulfide 2-7; N-terminus assumed; SMILES CC[C@H](C)[C@H](NC(=O)[C@H](C)NC(=O)CNC(=O)[C@H](Cc1ccccc1)NC(=O)[C@H](CC(N)=O)NC(=O)[C@@H]1CCCN1C(=O)[C@H](CO)NC(=O)[C@H](CO)NC(=O)[C@H](Cc1c[nH]cn1)NC(=O)[C@H](CCCNC(=N)N)NC(=O)[C@H](CC(C)C)NC(=O)[C@H](Cc1ccccc1)NC(=O)[C@H](CC(=O)O)NC(=O)[C@H](C)NC(=O)[C@H](CC(C)C)NC(=O)[C@H](CCCNC(=N)N)NC(=O)[C@H](CCC(N)=O)NC(=O)[C@@H](NC(=O)[C@H](C)NC(=O)[C@@H]1CSSC[C@H](NC(=O)[C@@H](N)CCCCNC(=O)CC[C@H](NC(=O)CCCCCCCCCCCCCCCCCCC(=O)O)C(=O)O)C(=O)N[C@@H](CC(N)=O)C(=O)N[C@@H]([C@@H](C)O)C(=O)N[C@@H](C)C(=O)N[C@@H]([C@@H](C)O)C(=O)N1)[C@@H](C)O)C(=O)N1CCC[C@H]1C(=O)N[C@@H](CO)C(=O)N[C@@H](CO)C(=O)N[C@H](C(=O)N[C@@H](CC(N)=O)C(=O)N[C@H](C(=O)NCC(=O)N1CCC[C@H]1C(=O)N[C@@H](CCCNC(=N)N)C(=O)N[C@H](C(=O)N[C@@H](Cc1ccc(O)cc1)C(N)=O)[C@@H](C)O)C(C)C)[C@@H](C)O, Synthetic acylated analogue of human amylin) | 116 | 151 | 0.504 nM | 58.5 nM
K([γGlu-C20 diacid])CNTATCATQRLADFLRHSSPNFGAIPSSTNVGPETY-NH2 (disulfide 2-7; N-terminus assumed; SMILES CC[C@H](C)[C@H](NC(=O)[C@H](C)NC(=O)CNC(=O)[C@H](Cc1ccccc1)NC(=O)[C@H](CC(N)=O)NC(=O)[C@@H]1CCCN1C(=O)[C@H](CO)NC(=O)[C@H](CO)NC(=O)[C@H](Cc1c[nH]cn1)NC(=O)[C@H](CCCNC(=N)N)NC(=O)[C@H](CC(C)C)NC(=O)[C@H](Cc1ccccc1)NC(=O)[C@H](CC(=O)O)NC(=O)[C@H](C)NC(=O)[C@H](CC(C)C)NC(=O)[C@H](CCCNC(=N)N)NC(=O)[C@H](CCC(N)=O)NC(=O)[C@@H](NC(=O)[C@H](C)NC(=O)[C@@H]1CSSC[C@H](NC(=O)[C@@H](N)CCCCNC(=O)CC[C@H](NC(=O)CCCCCCCCCCCCCCCCCCC(=O)O)C(=O)O)C(=O)N[C@@H](CC(N)=O)C(=O)N[C@@H]([C@@H](C)O)C(=O)N[C@@H](C)C(=O)N[C@@H]([C@@H](C)O)C(=O)N1)[C@@H](C)O)C(=O)N1CCC[C@H]1C(=O)N[C@@H](CO)C(=O)N[C@@H](CO)C(=O)N[C@H](C(=O)N[C@@H](CC(N)=O)C(=O)N[C@H](C(=O)NCC(=O)N1CCC[C@H]1C(=O)N[C@@H](CCC(=O)O)C(=O)N[C@H](C(=O)N[C@@H](Cc1ccc(O)cc1)C(N)=O)[C@@H](C)O)C(C)C)[C@@H](C)O, Synthetic acylated analogue of human amylin) | 62 | 16.7 | 0.3 nM | 18.6 nM
K([γGlu-C20 diacid])CNTATCATQRLAAFLRHSSPNFGAIPSSTNVGHNTY-NH2 (disulfide 2-7; N-terminus assumed; SMILES CC[C@H](C)[C@H](NC(=O)[C@H](C)NC(=O)CNC(=O)[C@H](Cc1ccccc1)NC(=O)[C@H](CC(N)=O)NC(=O)[C@@H]1CCCN1C(=O)[C@H](CO)NC(=O)[C@H](CO)NC(=O)[C@H](Cc1c[nH]cn1)NC(=O)[C@H](CCCNC(=N)N)NC(=O)[C@H](CC(C)C)NC(=O)[C@H](Cc1ccccc1)NC(=O)[C@H](C)NC(=O)[C@H](C)NC(=O)[C@H](CC(C)C)NC(=O)[C@H](CCCNC(=N)N)NC(=O)[C@H](CCC(N)=O)NC(=O)[C@@H](NC(=O)[C@H](C)NC(=O)[C@@H]1CSSC[C@H](NC(=O)[C@@H](N)CCCCNC(=O)CC[C@H](NC(=O)CCCCCCCCCCCCCCCCCCC(=O)O)C(=O)O)C(=O)N[C@@H](CC(N)=O)C(=O)N[C@@H]([C@@H](C)O)C(=O)N[C@@H](C)C(=O)N[C@@H]([C@@H](C)O)C(=O)N1)[C@@H](C)O)C(=O)N1CCC[C@H]1C(=O)N[C@@H](CO)C(=O)N[C@@H](CO)C(=O)N[C@H](C(=O)N[C@@H](CC(N)=O)C(=O)N[C@H](C(=O)NCC(=O)N[C@@H](Cc1c[nH]cn1)C(=O)N[C@@H](CC(N)=O)C(=O)N[C@H](C(=O)N[C@@H](Cc1ccc(O)cc1)C(N)=O)[C@@H](C)O)C(C)C)[C@@H](C)O, Synthetic acylated analogue of human amylin; also called compound 93) | 83.2 | 101 | 1.58 nM | 131 nM
